# In patent US11767343B2, “Peptide probe for recognition of G-quadruplex and use thereof in detection of G-quadruplex in cell” (Changzhi Medical College, priority 2020, dated 2023):
# Like-named read-outs stand apart in the source and are kept apart here.
# Key:
# [1] = system: DNA of G4 (GGGT)4; experiment: Non-denaturing polyacrylamide gel electrophoresis of G4 DNA binding to proteins; conditions: for binding to G4 DNAs (new slower band): protein:DNA 2:1 and 6:1, 100 nM G4 DNA, gel with 75 mM KCl
# Protocol: After the culture was incubated until OD reach 0.5, the culture was induced with 0.8 mM IPTG and kept for 4 h at 37° C., followed by protein extraction and purification to obtain the proteins monomer, G4P, triplex, and tetrad. The protein extraction was performed by using Capturem™ His-Tagged Purification Miniprep Kit (TAKARA).
# The obtained proteins were mixed with the DNA of G4 at a molar concentration ratio of 2:1 and 6:1, respectively, where the DNA of G4 comprises a sequence of (GGGT)4 (SEQ ID NO: 74), with a concentration of 100 nM. The G4 DNAs binding to the proteins were electrophoresed in a non-denaturing polyacrylamide gel containing 75 mM KCl. […] The G4 DNAs moved slower after binding to the proteins, thereby yielding a new band.
# [2] = system: non-G4 DNAs or RNAs; experiment: ELISA binding, summary over non-G4 controls; conditions: ssDNA, RNA hairpin, DNA: RNA heteroduplex, i-motif
# Protocol: (§1) The annealed oligonucleotides were immobilized on a streptavidin-coated plate (Sigma-Aldrich), followed by incubating with G4P or RHAU23 at the indicated concentrations. Detection of bound proteins used an anti-FLAG Mouse Monoclonal Antibody (Transgen Biotech, China), an HRP Conjugated Goat Anti-Mouse IgG (H+L) secondary antibody (Transgen Biotech, China), and a TMB ELISA Substrate (Transgen Biotech, China) according to the manufacturer's instructions. Absorbance was measured at 450 nm on a Multi-Plate Reader (Biotek, USA). Dissociation constants (Kd) were obtained from the binding curves. The standard error of mean values was calculated from three replicates.
# (§2) Therefore, the following were searched for PQSs of the three well-characterized non-canonical G4s, i.e. G4s with one loop of 8-15 nucleotides (4GL15), G-vacancy-bearing G4s (GVBQ), G4 with a bulge (Bulge), respectively. The G4P had no binding to the non-G4 DNAs or RNAs, including single-stranded DNA (ssDNA), RNA hairpin, DNA: RNA heteroduplex, and i-motif.
# [3] = molecular target: G4s; experiment: ELISA binding, summary over the 21 G4s
# Protocol: as §1, §2
# [4] = molecular target: T2B-1; experiment: ELISA binding of G4P to immobilized biotinylated oligonucleotide; conditions: G4, Bulge, Parallel, read-out: Kd (nM) ± SD
# Protocol: as §1
# [5] = molecular target: 2G DNA + 2G RNA; experiment: as above; conditions: 2/2 DNA/RNA Hybrid G4, Parallel, read-out: Kd (nM) ± SD
# Protocol: as §1
# [6] = molecular target: TERRA; experiment: as above; conditions: G4, Parallel, read-out: Kd (nM) ± SD
# Protocol: as §1
# [7] = molecular target: TBA; experiment: as above; conditions: G4, Antiparallel, read-out: Kd (nM) ± SD
# Protocol: as §1
# [8] = molecular target: NRAS RNA; experiment: as above; conditions: G4, read-out: Kd (nM) ± SD
# Protocol: as §1
# [9] = molecular target: TERRA3G; experiment: as above; conditions: intermolecular G4, Parallel, read-out: Kd (nM) ± SD
# Protocol: as §1
# [10] = molecular target: HRAS1; experiment: as above; conditions: G4, Antiparallel, read-out: Kd (nM) ± SD
# Protocol: as §1
# [11] = molecular target: DRD3; experiment: as above; conditions: G4, Antiparallel, read-out: Kd (nM) ± SD
# Protocol: as §1
# [12] = molecular target: 3G DNA + 1G RNA; experiment: as above; conditions: 3/1 DNA/RNA Hybrid G4, Parallel, read-out: Kd (nM) ± SD
# Protocol: as §1
# [13] = molecular target: SPB1; experiment: as above; conditions: G4, Antiparallel, read-out: Kd (nM) ± SD
# Protocol: as §1
# [14] = molecular target: Bcl2; experiment: as above; conditions: G4, Mixed parallel and antiparallel, read-out: Kd (nM) ± SD
# Protocol: as §1
# [15] = molecular target: c-MYC; experiment: as above; conditions: G4, Parallel, read-out: Kd (nM) ± SD
# Protocol: as §1
# [16] = molecular target: ABTB2; experiment: as above; conditions: G4, GVBQ, read-out: Kd (nM) ± SD
# Protocol: as §1
# [17] = molecular target: C20orf24; experiment: as above; conditions: G4, Mixed parallel and antiparallel, read-out: Kd (nM) ± SD
# Protocol: as §1
# [18] = molecular target: HT; experiment: as above; conditions: G4, Mixed parallel and antiparallel, read-out: Kd (nM) ± SD
# Protocol: as §1
# [19] = molecular target: C9orf72; experiment: as above; conditions: G4, Antiparallel, read-out: Kd (nM) ± SD
# Protocol: as §1
# [20] = molecular target: hTel-3G; experiment: as above; conditions: intermolecular G4, Mixed parallel and antiparallel, read-out: Kd (nM) ± SD
# Protocol: as §1
# [21] = molecular target: MYOG; experiment: as above; conditions: G4, GVBQ, read-out: Kd (nM) ± SD
# Protocol: as §1
# [22] = molecular target: hTel; experiment: as above; conditions: G4, Mixed parallel and antiparallel, read-out: Kd (nM) ± SD
# Protocol: as §1
# [23] = molecular target: CSTB; experiment: as above; conditions: G4, Parallel, read-out: Kd (nM) ± SD
# Protocol: as §1
# [24] = system: parallel and nonparallel G4s; experiment: ELISA comparison of G4 binding affinity between G4P and monomeric RHAU23; conditions: FIG. 3
# Protocol: as §1
# A comparison of G4 binding affinity between G4P and a monomeric RHAU23 was further performed. A G4P comprising only one G4-binding domain was termed monomeric RHAU23.
molecule,measurement,setting,value
"tetrad: Protein comprising four binding domains RHAU23; amino acid sequence SEQ ID NO: 7 (protein, Fully synthetic) MGSSHHHHHHSSGLVPRGSHMHPGHLKGREIGMWYAKKQGQKNKGTGSGAGTGSGAGTGSGAHPGHLKGREIGMWYAKKQGQKNKGTGSGAGTGSGAGTGSGAHPGHLKGREIGMWYAKKQGQKNKGTGSGAGTGSGAGTGSGAHPGHLKGREIGMWYAKKQGQKNKGTGSGADYKDHDGDYKDHDIDYKDDDDK",binding to G4 DNAs (new slower band),[1],binding ability
"G4P: Polypeptide probe: two RHAU23 G4-binding domains, linker of three GTGSGA hexapeptides, C-terminal 3xFLAG tag, N-terminal HIS tag; SEQ ID NO: 4 (protein, Fully synthetic) MGSSHHHHHHSSGLVPRGSHMHPGHLKGREIGMWYAKKQGQKNKGTGSGAGTGSGAGTGSGAHPGHLKGREIGMWYAKKQGQKNKGTGSGADYKDHDGDYKDHDIDYKDDDDK",relative affinity with G4s among the proteins,"[1]; compared among monomer, G4P, triplex, tetrad",highest affinity
same,binding to G4 DNAs (new slower band),[1],binding ability
same,binding to the non-G4 DNAs or RNAs,[2],no binding
same,Kd,"[3]; 5 of the 21 G4s, read-out: Kd to 5 G4s",1 to 3 nM
same,Kd to 16 G4s,[3]; 16 of the 21 G4s,sub-nM
same,Kd,"[3]; range over the 21 G4s, read-out: Kd values for these G4s",0.31 to 3.11 nM
same,Kd,[4],0.34 ± 0.02 nM
same,Kd,[5],0.42 ± 0.06 nM
same,Kd,[6],1.44 ± 0.11 nM
same,Kd,[7],1.71 ± 0.1 nM
same,Kd,[8],0.48 ± 0.03 nM
same,Kd,[9],0.83 ± 0.05 nM
same,Kd,[10],3.11 ± 0.25 nM
same,Kd,[11],0.31 ± 0.03 nM
same,Kd,[12],0.59 ± 0.1 nM
same,Kd,[13],2.83 ± 0.15 nM
same,Kd,[14],0.9 ± 0.08 nM
same,Kd,[15],0.99 ± 0.1 nM
same,Kd,[16],0.59 ± 0.04 nM
same,Kd,[17],0.35 ± 0.03 nM
same,Kd,[18],0.79 ± 0.05 nM
same,Kd,[19],1.89 ± 0.21 nM
same,Kd,[20],0.71 ± 0.05 nM
same,Kd,[21],0.82 ± 0.05 nM
same,Kd,[22],0.37 ± 0.03 nM
same,Kd,[23],0.37 ± 0.03 nM
same,discrimination between parallel and nonparallel G4s in binding,[24],almost no discrimination between the parallel and nonparallel G4
"RHAU23: G4P comprising only one G4-binding domain RHAU23; amino acid sequence SEQ ID NO: 5 (protein, Fully synthetic) MGSSHHHHHHSSGLVPRGSHMHPGHLKGREIGMWYAKKQGQKNKGTGSGADYKDHDGDYKDHDIDYKDDDDK",discrimination between parallel and nonparallel G4s in binding,[24],"only binds parallel, but not nonparallel G4s"
"triplex: Protein comprising three binding domains RHAU23; amino acid sequence SEQ ID NO: 6 (protein, Fully synthetic) MGSSHHHHHHSSGLVPRGSHMHPGHLKGREIGMWYAKKQGQKNKGTGSGAGTGSGAGTGSGAHPGHLKGREIGMWYAKKQGQKNKGTGSGAGTGSGAGTGSGAHPGHLKGREIGMWYAKKQGQKNKGTGSGADYKDHDGDYKDHDIDYKDDDDK",binding to G4 DNAs (new slower band),[1],binding ability
